In patent US20250026782A1, “ACTIVATING APPENDAGES TO INDUCE POLYPHARMACOLOGY IN PEPTIDE HORMONE ANALOGUES, INCLUDING DUAL GLP-1R / GIP AGONISM” (Wisconsin Alumni Research Foundation, priority 2023, published 2025):
“Also recorded” adds a separate entry of the source. No end group written: not given here. B4 T2‑OMe = not defined here

Assays:
GLP-1 receptor = GLP-1 receptor (Homo sapiens, UniProt P43220); experiment: cAMP production assay, activation of GLP-1R (GloSensor HEK293 cells); type: cell-based; conditions: result in words, EC50 values only in figures
Text: Cell medium was 0.22 μm-filtered DMEM supplemented with 10% (v/v) FBS (referred to as GS media) and penicillin/streptomycin.

GIP receptor = target: T1, GIP receptor (Homo sapiens, UniProt P48546); experiment: cAMP production assay, activation of GIPR (HEK 293 GS cells stably expressing GIPR); conditions: result in words, EC50 values only in figures
T1 sequence (P48546 22-466): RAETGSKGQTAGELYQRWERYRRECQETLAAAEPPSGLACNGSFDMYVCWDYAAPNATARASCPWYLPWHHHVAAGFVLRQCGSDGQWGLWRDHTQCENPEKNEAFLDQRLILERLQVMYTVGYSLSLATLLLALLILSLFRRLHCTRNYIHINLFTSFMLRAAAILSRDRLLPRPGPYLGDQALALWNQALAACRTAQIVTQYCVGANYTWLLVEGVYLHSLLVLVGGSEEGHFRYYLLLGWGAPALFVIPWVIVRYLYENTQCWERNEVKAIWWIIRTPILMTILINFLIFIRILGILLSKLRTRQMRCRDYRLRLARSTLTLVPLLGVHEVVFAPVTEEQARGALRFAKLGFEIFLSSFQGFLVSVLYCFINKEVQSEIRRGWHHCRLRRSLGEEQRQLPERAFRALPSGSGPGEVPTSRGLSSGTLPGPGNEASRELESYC

[1] = degraded by peptidases; cited from earlier work

Sequence of GLP-1 receptor (P43220 24-463): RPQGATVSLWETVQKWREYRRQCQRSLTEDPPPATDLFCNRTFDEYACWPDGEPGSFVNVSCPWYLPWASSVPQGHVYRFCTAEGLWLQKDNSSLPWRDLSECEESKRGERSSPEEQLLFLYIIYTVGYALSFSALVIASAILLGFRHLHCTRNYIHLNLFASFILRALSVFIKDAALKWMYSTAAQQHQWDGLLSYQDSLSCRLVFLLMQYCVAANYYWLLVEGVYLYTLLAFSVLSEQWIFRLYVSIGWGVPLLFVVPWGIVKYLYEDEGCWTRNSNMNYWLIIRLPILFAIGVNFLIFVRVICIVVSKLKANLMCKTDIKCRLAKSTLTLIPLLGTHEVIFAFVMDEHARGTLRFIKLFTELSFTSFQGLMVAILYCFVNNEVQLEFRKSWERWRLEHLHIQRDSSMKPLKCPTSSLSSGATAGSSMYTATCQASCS

| Substance | activation of the GLP-1 receptor (agonist activity / potency) (GLP-1 receptor) | activation of the GLP-1 receptor (agonist activity / potency) (GLP-1 receptor; listed as TZP) | activation of the GIP receptor (agonist activity / potency) (GIP receptor) | activation of the GIP receptor (agonist activity / potency) (GIP receptor; listed as TZP) | half-life in vivo [1] [min] | activation of the GIP receptor (agonist activity / potency) (GIP receptor; listed as GLP-1*) |
| --- | --- | --- | --- | --- | --- | --- |
| tirzepatide | activation of the GLP-1 receptor | dual GLP-1R/GIPR | activation of the GIP receptor | dual GLP-1R/GIPR | – | – |
| GLP-1: glucagon-like peptide-1, native hormone, HAEGTFTSDVSSYLEGQAAKEFIAWLVKGRG | – | – | does not activate the GIP receptor; also recorded: no effect on the GIP receptor; also recorded: does not activate the GIPR | – | < 2 | acts as an agonist; also recorded: agonists of both GLP-1 receptor and GIP receptor; also recorded: greater activity than other tested appendages |
| GLP-1 16 B4 T2-OMe: GLP-1 with position 16 B4 T2 side chain, OMe variant of bisphenol (HAEGTFTSDK(B4 T2‑OMe)SSYLEGQAAKEFIAWLVKGRG; reading uncertain) | – | – | greater activity than other tested appendages | – | – | – |
| GIP (1-30): amidated truncated form of glucose-dependent insulinotropic polypeptide, YAEGTFISDY SIAMDKIHQQ DEVNWLLAQK-NH2 | does not activate the GLP-1 receptor | – | – | – | – | – |
